Biological target: human FACT (FAcilitates Chromatin Transcription), full length (human) (UniProt Q9Y5B9)
Assay: AUC; SV-AUC, absorbance optics; 1.8 μM FACT incubated with histones at the indicated molar ratios for 10 min at room temperature; 150 mM NaCl, 20 mM Tris pH 8.0, 1 mM TCEP; 20°C

Substance: histone H2A–H2B dimer (no label stated) (from UniProt P06897 1-130; P02281 1-126) (complex)
- stoichiometry N (H2A–H2B per FACT): 1
